The text below walks through data of a protein production outcome set (Wang et al. 2014).

The nature of the series: label from the status in PepcDB records.
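Note: failed if final PepcDB status was selected cloned or expressed and not failed if soluble or beyond.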

For “MLSFIAVGLLARLAVARGEVKYGCTKHELRRLSRRGRLLLVVLWPLVAAFLLAIFPNVPSRNIFGDLILIIAAVLPAALLAFLVNAMLERTRFKVVPRRSPKAHSR”, the protein production result is on record as “failed”.
For the sequence “MLSFIIKRILWAIPTLFGVSIIVFMMVHLVPGDPALVILGEKANQAAIDALREQFGLNKPLIEQYFFFINNVLHGNFGTSIMTGEPVMHEFWQRFPATVELALIALFMALVLGISVGVLAAIKRYSVFDYSSMTFALAGISMPVFWLGLMLIYIFSVQLGWLPVFGRLSDVYYLDGPTGLYLIDSLIARDYGAFMDTIKHLILPSIVLATVSTAVIARMTRASMAEVSKEDYVRTAKAKGCSSFRVIFVHTLRNALIPVTTIAGLMLAGLLGGSMITETVFSWPGIGKWIVNALNQRDFPIIQSMSLIIAMMYIGANLLVDILYAFIDPRIRLS”, the protein production entry is “failed”.
For “MLSFRARLFLAFALLWLLFLGGGWYLAGRSVDQALKRRLEATLAQDALRAAEAYQKGQAGALLTTGGVYLHLYAQDGTPIALTRPDHRLPPERLRRAGPTPEVLWEEGFAAALVATPLGLLVLTAETSPIEAALEALREALLRAFLLLSPLGLALVYLTARLAARPLEAVAREITRRSPDRLDPVPHRLPQDEFGRMVEAVNALLQALKEAKERERAFLAEASHELRTPLTVLLGHLDRLGRNPQDLEALRTARATAERMRRLVEDLLALARGEVERNLNLHIVDLGEVAREAALEHGVAAEAESAEVLGDPDRLLQLLRNLVANAVRAAGKEGVRVRVRREADHALLEVEDSGPGIPEDLLPRLFQRFARGPGGGTGLGLAIAHAIAKAHGGEIAVESRPGRTVFRVRLPLLEEEA”, the protein production entry is recorded as “failed”.
For the sequence “MLSGMSGGMLFIVFAWLIGHAVLRIVPTAYKPVLMVRSRGIALALSAIPLLLAYQLYEVVRVVQSQFSLSFQEAASTVIIQHPVGQSWFVVFTVTVFLGVLLLFPEKRVTANLFFVGVLLLIVSVSWVSHGTALLGWQGFVLNTSHLLASAVWIGTLLMVGWGARPLTDGLKFHRWFSLMVVCAVAVLSVSGLLLMNVIVPEYVPSWALTYGQFLLMKHLLFLPLLLFGLRHLLWLRAEKPLSVVQRSIRIESVVGCVVFFLSAFMTRQTPPHEVAETMQVEPPAWSFLLFHPEGLSVFQQLTLSLTGWGIACLVLAMIGLAASVLSLRHKSLFVFTTSSLTASLFLYVGLMLSVTPVSILVDETRYPTVEAAIQATYEDKTSIDIVLEDETEETTTVIYTVNAHDFVIEKLGIDSETDDFYRLPAAMLTVGGTSVYDEPMKIRTFQVTDGQWKETGSNYTYVTFGMIQEPKETVRLQLHYEDGSYVTELTNGVFYHVYQSDVEMSQPVIDLLAEDGTKVDQFLPAGVEQGVYCH”, the protein production entry is on record as “failed”.
For the sequence “MLSKIVDINAARQNIDMKVKLLSLNKRTIKNDRGETVYYYGIIGDETGTVPFTAWTFPPAVRVGDVIEIRSCYSNIYNGKIRIYIDGRSEVILKPDVEMEVKRSSDLVKIRDVSLSTPYVSVIGKITGIHKKEYESDGTTKSVYQGYIEDDTARIRISSFGKQLQDSDVVRIDNARVAQFNGYLSLSVGDSSRIESVNVNIPEKPRHIFISEIRSPVGGITIVGFVVSVGQGSRIFTKCSVCRRIVEDGTCKDHPKAPVYPDIFGYFSISDGTGTITCYINSDSFLPYAGISQDQFRRDAYSMNPNSLIKKNLLGKCISVSGDLRSQDDRIVMNVQSMKAISAEDNREIESIIEEEFQ”, the protein production result is on record as “failed”.
Consider “MLSMVEVKIIKSDGFFNEVLISSDKKIHFDTAYAEGDFNCFGEGSIVSETTDDLKFKIANLIPGKYHFKIAIDQYKILREAENRSGSYSFSIWLEKPYHNPDYAQFCAIIDKKLMDVRIAVPKHSISVSIFTKDTLKPVYSRRASFDTFDAVEYVFDGMSDYYFEVDNSRLPKEGYFSPKVHIEHEGGSKIIYHIFPDRFFRVGPHLPTLSRWGDKPTFSSFFGGNLRGITEKIGYIKALNVDTIYLNPVYKSKSNHRYDVDDYFSIDGLLGGEQDFIELVNEAHENGIKIVADMVFNHTSTDFPYFLDALKNGKNSKYWNWYIFHGEGAAVFDGRAKGKTKPLYETFMGVGRMPKLNHKNAEVRKFCIDVMKYYKNKFGVDGFRYDVAHSIYPEFFLEAVKEFGNEMLHIGEAWCLPSMFMLSGYWNSFTNYYLRNAIIKFVREEINITEFYNMIQNMIISYGPLIQQNVMNILDSHDTERILRAFKGNKKKVKLAYSILFMFDGFATIYYGDEVGLDGGRDPDDRRCFPWDNMDEDMLQFLKKLGEIRRMYHTGSAGIITVEETQECKYITRLSGESIIKVAIAKKPVTLEGEIILSSCGEKTIYEGDFALSIAKYA”, for which the protein production result is given as “failed”.
“MLSSVFQVLGGLALFLLAMEMMTNGLKNAAGHHLRHMLGHWTRTPLRALFAGFVITGIVQHSGAVTVATIGFVNAGLMTLAQSLGVVFGSNIGTTMTGWLVSLIGFGFKIEAMALPLLAAGVGFKLVSRNPRNQFLGEALAGFALFFLGLSILKTALESSALGFQNGHLINADYGLPAFMLIGLLATVLTQSSSAALAIVLTAAAGGLIPLDNAAAAVIGANLGSTSTAALSALKATANARRLATGHILFNLVTGVIALLVLPAMLWLVNTLTNLLDLEANPAVSLALFHTLFNVLGAAIMLPFTQPFARFLGRLFRSKEEDNAEPRYLDDTLVTTPELAIGAVDQEMKRLIGHSRGLLRVCLDRESLEESDVRPKADAVRNLNLAITDYIGRLRAEKMHPSVVDALTLSIRTCRYLAEATELTLHLVRLRALARRTDFETLESVFNRYFEVIRALVASETPVPEQLQEAETVYHQLKAATLQKMIRREFSSSLGAQVLDELSAVRRLTDQWSKALYWQDGVGLLNQSHDQASAS”: the protein production result is “failed”.
Next, “MLSTEHFLLFASIVLFAGIMAGKVGYRFGIPTLLIFLFTGMLFGVDGFGFQFSNADVAQSVGIIALSIILFTGGMDTRIRKVRPVIAQGLTLSTLGVLLTALLSGFFIFWLSGSDFGPYPFALSTSLLLAATMASTDSASVFAILRSQKMQLKENLAPTLEMESGSNDPMAYMLTIALIDFITTGQSGIGSIVLTFILQFVVGGTLGFLMGRLAVFILNRMNIHNDTLYPITLLCMVFFTFSVTSLLQGNGYLAVYIAGIVVGNNRVIHKKSINTFLDGITWLVQIILFILLGLLVNPREMLDVAPFSLVVGAFMILIARPLAVYFCLIPFRKISFRGKTFLSWVGLRGAVPIIFATYPMIDNIPGADQLFNVVFFITILSLLVQGSTISQVARWLGLDIPSPPIGSLFGVEIPEETGTKLEERVVDASMLSHGDLLMNLSLRDEELVILVRRGEGYRVPKGRMHLQVGDVLLIVSEKNLSQTLTSGDPENHPGLLQRLKHRLLRR”: “failed”; “MLSTSRSRFIRNTNESGEEVTTFFDYDYGAPCHKFDVKQIGAQLLPPLYSLVFIFGFVGNMLVVLILINCKKLKCLTDIYLLNLAISDLLFLITLPLWAHSAANEWVFGNAMCKLFTGLYHIGYFGGIFFIILLTIDRYLAIVHAVFALKARTVTFGVVTSVITWLVAVFASVPGIIFTKCQKEDSVYVCGPYFPRGWNNFHTIMRNILGLVLPLLIMVICYSGILKTLLRCRNEKKRHRAVRVIFTIMIVYFLFWTPYNIVILLNTFQEFFGLSNCESTSQLDQATQVTETLGMTHCCINPIIYAFVGEKFRRYLSVFFRKHITKRFCKQCPVFYRETVDGVTSTNTPSTGEQEVSAGL”: “failed”; “MLSVRIPGPARQAWAIVEQRPWLARRPFIIHGPPWRLASQQEDDVFKLMSRSAVKMVERYLPDPYVFVVLLTLVAAGAAMIIEGQTPMAVVRWWGNGFWGLLTFAMQMLLVLVTGYMLASTPLVKRMLARLASLATSAGGAIILVSVVSLAASWINWGFGLVVGALFAKQIARQVRVDYRLLVASAYSGFIIWHGGLAGSIPLTIATEGHFSADKIGIIPTGDTIFAVFNLVIVVAMFILVPLVNRLMLPDEKESVYVDPARLEEASVPASDDDKRPAARLENSRLLAWLIAAGGLAYMFDYYVVRGAGLNLNVINFSFLILAILLHGTPRRLLTSLDEAIKGGAGIVIQFPFYAGIMAIMMDSGLAATLSEWFVSIASAATLPFWTFISAGIVNIFIPSGGGQWAVQSPIVISAAQALGADMPRVAMAVAWGDAWTNMLQPFWALPVLAIAGLKAKDIMGYCIIQLLVTGVIISVGLSFF”: “failed”.
With “MLTFAAAVLFLIITPGPGVMTTAGFGAAYGFRASLSYVVGLFIGTNLVMLAVMTGLAAVLLSVPGLRLVLLVLSVGYLLYLAALIALAGARVAFIEARSAPGVMRGVLLQAINPKAYAVNTSLITGFNYAPDAFLFEMFTKALILNAIWIPIHLAWLWAGAALHRLNLPHSTQRAINILMALSMLGVVALALWSASRVKA”, the protein production result was “failed”.
For “MLTFETLCQWHRAWLGNVYSWAGQSRTVDMSKPNIRFASPVQIPKLAEKFEARYLPRFAELPEMTDEELVAFLAEVHVEFILIHPFREGNGRISRLLLDVMAAKAGAEPLDYSLWDEHKDFYFKAIQAGRDGDYQHVERLIRDVLEAQQLEHHHHHH”, the protein production entry is “failed”.
Turning to “MLTGRRYLLAFTPEQEEFAEKIGDACRVVWNTALEQRRQYRRRGAFIGYVEQARQMAEAKKDFPWLAEAPSHTLQQTLRDLERACKTHGTFKVRWRSKRKNAPTFRFPDPKQITVERISRRWGRVKLPKLGWTRFRWTRPLGGQLRNATVLKDGGRWYISFCVEDGLMESAPNGKPPVGVDRGVTVAVATSSGWMRDREFVTPGEAVRLKRLQQQLARQRKGSNRRAATRAKLTKLNARIRARRTDFLAWTANRLTCDHGLVVVEDLNIRNMTASAKGTLAEPGRNVAAKAGLNRAILAKGWGGLLTALEHKARYHGSRILRVPPAFTSQTCHACGHCAPDNRESQAEFRCRACGHQANADVNAAKNILAAGLAVTGRGDLAVGRSVKRQPPKVEAA”, the protein production result is “failed”.
On to “MLTKSVAVITSTIGRPELERAIQSVQQQTYPCQHYVFVDGVQFAEQAKQILDKYPQVIVTYLPMNTGANGWSNSSINAIAPFLAKEDMICYLDDDNWYEPNHVETCLTCLMQNQLDYVYSYRNLINSVNNHFICRDTFESVGPNKALKLDISSNMLNIAGSIQLHNENHIDTNTYFLTRKVALEASQYWYSGRSNDNNVSNWLLFSAYKGICTKTYSVNYLFDPTTFFNTFYQMICQNTPLNSSEQDKIAILEALIRAISDSQASD”, for which the protein production entry is “failed”.
On to “MLTLAPCGRGPCAARGEGASRPVLTKSHSSSRLKPTSAGQHPGAGRGPLAWGMTEPVPVAPFPSVFGGVQQLRPDVFRVRLPLVNIFLMGVPGGDWVLVDTGMPGTAGLIRQAAAQVYGARAPQAIVLTHGHFDHIGALHALLAEWNVPVYAHPDELPHLTGEVPYRFPDPTVGGLMSLTSPLFLPGPYDFRPQVRTLPEDGTVPELPGWRWVHTPGHTEGHVSLWREADRLLIAGDAVVTTPQETVPGALASTPTVLRRPPAYYTPNWNATRDSVRTLAALRPALVATGHGHPLTDDSLGDALTRLADDFDHDPNGRPAHGWYLGHPAPMQKPRPGEPDPMRTLFLGALGAAGALWLLGRRRR”, for which the protein production result is recorded as “failed”.
Consider “MLTLVLASAQSPDLRGRGPDMEPRSSVAKSGVALGVLLLIGLPVAAQNSKVKTNYLSHIEPCNGVGATPLDVRIDACTAFIEASQGTTAALAIAYNNRGNAYTAKGDYDKAIRDFDQSIALKPTYAKAFNNRGVAYLRKGEYELAIEAFDDAIKLDPDYVAAFVNRAGAYLKKNDHQRAAHDYDEAIRLQPDSQAARSGRCWTRAVLGAWQAALEDCDRALQSGSTSAAVYDSRGLIHLKMGEFGAAIADYNSALRAAPELASALFGRGLAKLKQGDAIGGDSDISAAKTIQGNIGDEFAHYGVGRD”, for which the protein production result is “failed”.
For “MLTQEQIDGIYEDLEHPFHFLWFDIGDAHGVSSGETDPASFEERKKDFLFLVEKLLDEGKLKLGNRKTELIIDGTTAELVEMFRKSFPASDEEMLEGLWLVTEDCPFVAVWLFEGENGEDYYGWC”, the protein production entry is “failed”.
For the sequence “MLTTFIVNSPILASIVFTLITIATYQFASACQQKWQYIWLNPMLFTISILVPFLLLIDINYQEYSQTTEILNLLLEPAIVALGMPLYQQFKQIRFYWREMTAILVLGITVVITVSFLLAMWLIKAPEIAIALSLKSVTTPIGITLTEQLFGDSSITAFAILIAGLFGALLGPQWLSFIGINSAKAQGLAIGSASHVIGTAVLVRKSAEHGAYSSVALILSAILTALISPWLIPLLQRLVT”, the protein production result is given as “failed”.
